Laboratory results as given in the RNAGym collection of RNA variant scans (doi:10.1073/pnas.2313332121).

B1: TPR t1 (parent)
chain: GACCAAUCUGCCCUCAGAGCUCGAGAACAUCUUCGGAUGCAGAGGAGGCAGGCUUCGGUGGCGCGAUAGCGCCAACGUCCUCAACCUCCAAUGCAUCCCACCACAUGAUGAUGCCUGAAGAGCCUUGGUUUUUUG

Variants of: B1
Assay: polymerase ribozyme fitness, log enrichment relative to wild type (log ratio); higher = more active; in vitro selection for triplet polymerase activity
Outline: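 Both subunits of a heterodimeric triplet polymerase ribozyme were given their own mutant library, built by PCR and transcribed. Each library was annealed with a biotinylated primer, the partner subunit and triplets, incubated frozen at −7 °C, and its extended constructs gel-excised, captured on streptavidin beads and amplified by RT-PCR, all in one round done in triplicate. Fitness is the logarithm of genotype enrichment relative to wild-type enrichment, with replicates averaged by inverse-variance weighting. That logarithm is base 2, and Illumina-sequenced genotypes needed ≥10 input reads and ≥1 read per output.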

Row | Variant | polymerase ribozyme fitness (log ratio)
1 | A5C G35U C56U G63A C70U U109A G117C U125G U130A | -6.63
2 | A5C G39C C70U G113A G120A C123A | -2.68
3 | A5C G42U G61C U78G C80A A84U C104G G113C A119U U125C U133A | -7.58
4 | A5C G44U G77U | -2.37
5 | A5C G51A U78C G113U U133G | -6.24
6 | A5C G61A | -0.269
7 | A5C G69A U129A | -4.05
8 | A5C G69U C72U C79A U92A | -3.86
9 | A5C G107A | -5.67
10 | A5C U7A C8A C80U | -1.09
11 | A5C U7G U54A C72U G110C | -4.62
12 | A5C U9C C86U A100U G135U | -1.74
13 | A5C U9G C15G A43U A95U G110U | -4.99
14 | A5C U14A A46U | -4.39
15 | A5C U14C U54A C88U C124A | 1.25
16 | A5C U55G | -0.672
17 | A5C U106A | -0.572
18 | A5C U112A C114A | -1.8
19 | A5G A6G C11U C28U G120U | -2.3
20 | A5G A6G G52A A83U | -2.69
21 | A5G A18U G42U G52C G69C | -3.05

Row | Variant | polymerase ribozyme fitness (log ratio)
22 | A5G A27U A46G | -2.16
23 | A5G A43G C56U C80U | -2.61
24 | A5G A83U | -1.18
25 | A5G A95U A121C G128A U130C | -0.519
26 | A5G A118U C123G | 2.09
27 | A5G C8U A95C | -0.636
28 | A5G C8U C72G G110A | -1.25
29 | A5G C8U U54A A111U | -2.21
30 | A5G C11A U81C | -1.86
31 | A5G C12A C73A | -0.594
32 | A5G C12G G42U | -0.303
33 | A5G C13G A37G | -1.28
34 | A5G C13U G36C C62U C85A U112A G117U | -1.72
35 | A5G C15U C70U C101U C124U | -0.0911
36 | A5G C15U G48U C104U C124A | -0.12
37 | A5G C15U G93U G117U | -1.5
38 | A5G C22A A119G | -4.13
39 | A5G C49G G127C G128A | -2.99
40 | A5G C49U C73U | -0.864
41 | A5G C53A G61A C101U | 0.0588
42 | A5G C53U G71A G113A | -2.7

Row | Variant | polymerase ribozyme fitness (log ratio)
43 | A5G C64G G69A A83U | -4.33
44 | A5G C79A C115G U125G U131A | -1.22
45 | A5G C82U | -0.0686
46 | A5G C88G | -1.27
47 | A5G C94A U129G | -1.49
48 | A5G G10A C72A A91U | -1.75
49 | A5G G44A | -0.648
50 | A5G G44C A74U U96G | -2.57
51 | A5G G45A C104A | -2.92
52 | A5G G45A G69U C104A | -1.05
53 | A5G G47U A50C C62U A105C | -6.17
54 | A5G G51A C86G | -2.82
55 | A5G G57A G63A | -2.06
56 | A5G G60A G117A G135C | -0.941
57 | A5G G60A G120U | 0.955
58 | A5G G60C | 0.0339
59 | A5G G63A U67G U96A C123U | -5.12
60 | A5G G63C | -0.273
61 | A5G G63U | -0.893
62 | A5G G71A | -0.188
63 | A5G G77U G113U G122C | -3.27

Row | Variant | polymerase ribozyme fitness (log ratio)
64 | A5G G93A | -1.17
65 | A5G U9C C40U C56U U59A | -0.739
66 | A5G U9C U32C C40G G60U | -1.01
67 | A5G U9G C12A U78C G93A | -0.124
68 | A5G U33A C124U | -3.02
69 | A5G U87C | -0.474
70 | A5G U109G | -4.99
71 | A5U A6U A46C C104U C123A | 0.565
72 | A5U A18C G57U | -2.21
73 | A5U A18G | -2.05
74 | A5U A18G C20G C82U C94U A111C U112G A121C | -6.26
75 | A5U A18U | -2.62
76 | A5U A18U C94G A105G C123G | -6.51
77 | A5U A29U | -1.95
78 | A5U A29U C94U | -2.08
79 | A5U A37G C72U | -0.735
80 | A5U A37G C79G | -1.97
81 | A5U A37U U55A C123A | 0.562
82 | A5U A41C U55C U59C C82G G120C U125A | -2.81
83 | A5U A41U G120C | -1.47
